From paper PMC8629902, “Structure–function relationships explain CTCF zinc finger mutation phenotypes in cancer”

Target: T1, CTCF WT (UniProt P49711 1-727)
T1 sequence: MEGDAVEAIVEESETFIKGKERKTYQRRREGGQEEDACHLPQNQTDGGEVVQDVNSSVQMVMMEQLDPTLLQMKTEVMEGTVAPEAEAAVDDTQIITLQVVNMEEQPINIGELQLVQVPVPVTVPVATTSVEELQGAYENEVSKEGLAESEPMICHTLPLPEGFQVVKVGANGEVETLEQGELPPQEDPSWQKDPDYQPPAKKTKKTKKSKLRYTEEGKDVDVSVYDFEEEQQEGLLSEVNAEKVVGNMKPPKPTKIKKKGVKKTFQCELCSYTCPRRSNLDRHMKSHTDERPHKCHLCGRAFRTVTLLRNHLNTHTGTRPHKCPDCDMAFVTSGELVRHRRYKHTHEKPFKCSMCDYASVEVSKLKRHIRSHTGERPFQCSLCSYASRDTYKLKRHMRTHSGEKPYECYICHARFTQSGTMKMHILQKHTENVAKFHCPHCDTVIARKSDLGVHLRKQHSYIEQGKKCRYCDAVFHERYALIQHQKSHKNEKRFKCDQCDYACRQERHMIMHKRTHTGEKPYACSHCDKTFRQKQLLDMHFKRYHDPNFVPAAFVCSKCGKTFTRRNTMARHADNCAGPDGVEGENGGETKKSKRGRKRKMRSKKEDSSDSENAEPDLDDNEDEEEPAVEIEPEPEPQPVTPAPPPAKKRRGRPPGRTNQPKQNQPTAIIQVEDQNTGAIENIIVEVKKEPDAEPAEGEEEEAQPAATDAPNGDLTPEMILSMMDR
Test: pull-down; TnT lysate protein with bead-bound DNA, 3 h at 4 C; beads washed before and after binding in PIB (250 mM NaCl, 50 mM Tris pH 8.0, 0.25% IGEPAL, EDTA-free protease inhibitor); anti-CTCF Western blot
Conditions: protein: ivt; tags: FLAG (pcDNA3.1-FLAG); label: 5' biotin on S3 strand; blunt

B1: core CTCF binding site probe (dsDNA)
DNA 1: AGGACCAGCAGGGGGCGCA
DNA 2: TGCGCCCCCTGCTGGTCCT
binding result: binds
